In patent US20120124684A1:

Target: purified glutathione reductase (GR)
Experiment: cell-based or functional assay

- GR activity in vitro (purified GR with purified αBC, compared to a BSA control; proteins added at a 1:4 molar ratio to GR): 18%
Substance: purified αBC
